The source of these data is patent publication US5955420, “Rse receptor activation” (Genentech, Inc., dated 1999).

The target of this test is CD4-IgG (human, UniProt P01730). The test can be described thus: competition in the FBS-mediated CMK11-5 membrane binding assay.

Experimental: After a 30 min incubation at room temperature, 1 ml of ice cold assay buffer was added to each tube. Then, the membrane associated radioactivity was collected by centrifugation for 4 min at 15000 g, separated from unbound radioactivity by aspiration of the supernatant fluid and counted in a γ counter.

B1: Rse ligand (Rse-L) in fetal bovine serum, unpurified or Q-Sepharose enriched (ligand)
chain: ANTLLEETKKGNLERECIEELCNKEEAREIFENNPETEYFYPKYLGCLGSFRAGLFTAARLSTNAYPDLRSCVNAISDQCNPLPCNEDGFMTCKDGQATFTCICKSGWQGEKCESDINECKDPVNINGGCSQICENTPGSYHCSCKNGFVMLSNKKDCKDVDECVLKPSICGTAVCKNIPGDFECECAEGYKYNPVSKSCDDVDECAENLCAQLCVNYPGGYSCYCDGKKGFKLAQDQKSCEAVPVCLPLDLDKNYELLYLAEQFVGVVLYLKFRLPETTRFSAEFDFRTYDSEGVILYAESSDHSAWFLIALREGKIEIQFKNEKTTKMTTGGKVINDGLWHMVSVEELEQSISVKIAKEAVMNINKPGSLFKPTNGFLETKVYFAGVPRKMENALIRPINPRLDGCIRGWNLMNQGTSGVKEIIQEKQNKHCLVNVEKGSYYPGTGVAQFSINYKNESNPEAWQINVSLNIRPSAGTGVMLALVSDNTVPFALSLVDSATEKLQDILVSVESMVIGRIEAISLCSDQQTFLEIRVNRNNLELSTQLRKDSFHSEDFQRQFAILDEAMKGTVVTYLGGLPDVPFSATPVNAFYQGCMEVNINGVQVDLDEAISKHNDIRAHSCPSVWQKTKHT
With B1, the binding result was “no binding”.
